Data: US20230212319A1, “NOVEL ANTIGEN BINDING DOMAINS AND SYNTHETIC ANTIGEN RECEPTORS INCORPORATING THE SAME” (University of Southern California, priority 2020, published 2023)

Test system: L363 cells
Experiment: JNG assay, co-culture with L363 cells
Type: cell-based
Settings: co-culture with L363
How it was run: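 Jurkat NFAT-GFP (JNG) cells stably transduced with SARs by lentivirus, with drug selection where the construct carried a resistance gene, then co-cultured with target cells at E:T ~1:2 for ~4–18 h. % GFP-positive cells measured by FACS against parental JNG; +/- to 5+ correspond to ~5–50% GFP-positive.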

Row | Molecule | NFAT-GFP ASSAY: L363
1 | 22061 (protein) MALPVTALLLPLALLLHAARPQVQLVESGGGLVQPGGSLRLSCAASGFTFTNHAMSWVRQAPGKGLELVSSISGNGRTTYYADSVKGRFTISRDISKNTLDLQMNSLRAEDTAVYYCAKDGGETLVDSRGQGTLVTVSSLEGSGGGGSGGGGSGEDLKNVFPPEVAVFEPSEAEISHTQKATLVCLATGFYPDHVELSWWVNGKEVHSGVCTDPQPLKEQPALNDSRYCLSSRLRVSATFWQNPRNHFRCQVQFYGLSENDEWTQDRAKPVTQIVSAEAWGRADCGFTSESYQQGVLSATILYEILLGKATLYAVLVSALVLMAMVKRKDSRGRAKRSGSGATNFSLLKQAGDVEENPGPTSMDWIWRILFLVGAATGAHSFEEVQLLESGGGLVQPGGSLRLSCAASGFTFSSYAMSWVRQAPGKGLEWVSSISGSGDYIYYADSVKGRFTISRDISKNTLYLQMNSLRAEDTAVYYCAKEGTGANSSLADYRGQGTLVTVSSTRIQNPDPAVYQLRDSKSSDKSVCLFTDFDSQTNVSQSKDSDVYITDKCVLDMRSMDFKSNSAVAWSNKSDFACANAFNNSIIPEDTFFPSPESSCDVKLVEKSFETDTNLNFQNLSVIGFRILLLKVAGFNLLMTLRLWSSRAKRSGSGVKQTLNFDLLKLAGDVESNPGPSRGHMTEYKPTVRLATRDDVPRAVRTLAAAFADYPATRHTVDPDRHIERVTELQELFLTRVGLDIGKVWVADDGAAVAVWTTPESVEAGAVFAEIGPRMAELSGSRLAAQQQMEGLLAPHRPKEPAWFLATVGVSPDHQGKGLGSAVVLPGVEAAERAGVPAFLETSAPRNLPFYERLGFTVTADVEVPEGPRTWCMTRKPGA | L363 (2+) (refer to approximately 5%, 10%, 20%, 30%, 40% and 50% GFP positive cells)
2 | 21990 (protein) MALPVTALLLPLALLLHAARPQVQLVESGGGLVQPGGSLRLSCAASGFTFTNHAMSWVRQAPGKGLELVSSISGNGRTTYYADSVKGRFTISRDISKNTLDLQMNSLRAEDTAVYYCAKDGGETLVDSRGQGTLVTVSSLEDLKNVFPPEVAVFEPSEAEISHTQKATLVCLATGFYPDHVELSWWVNGKEVHSGVCTDPQPLKEQPALNDSRYCLSSRLRVSATFWQNPRNHFRCQVQFYGLSENDEWTQDRAKPVTQIVSAEAWGRADCGFTSESYQQGVLSATILYEILLGKATLYAVLVSALVLMAMVKRKDSRGRAKRSGSGATNFSLLKQAGDVEENPGPTSMDWIWRILFLVGAATGAHSFEVQLLESGGGLIQPGGSLRLSCAASGFTFSSHAMTWVRQAPGKGLEWVSAISGSGDYTHYADSVKGRFTISRDNSKNTVYLQMNSLRAEDSAVYYCAKDEDGGSLLGHRGQGTLVTVSSTRIQNPDPAVYQLRDSKSSDKSVCLFTDFDSQTNVSQSKDSDVYITDKCVLDMRSMDFKSNSAVAWSNKSDFACANAFNNSIIPEDTFFPSPESSCDVKLVEKSFETDTNLNFQNLSVIGFRILLLKVAGFNLLMTLRLWSSRAKRSGSGVKQTLNFDLLKLAGDVESNPGPSRGHMTEYKPTVRLATRDDVPRAVRTLAAAFADYPATRHTVDPDRHIERVTELQELFLTRVGLDIGKVWVADDGAAVAVWTTPESVEAGAVFAEIGPRMAELSGSRLAAQQQMEGLLAPHRPKEPAWFLATVGVSPDHQGKGLGSAVVLPGVEAAERAGVPAFLETSAPRNLPFYERLGFTVTADVEVPEGPRTWCMTRKPGA | + (refer to approximately 5%, 10%, 20%, 30%, 40% and 50% GFP positive cells)
3 | 22063 (protein) MALPVTALLLPLALLLHAARPQVQLVESGGGLVQPGGSLRLSCAASGFTFTNHAMSWVRQAPGKGLELVSSISGNGRTTYYADSVKGRFTISRDISKNTLDLQMNSLRAEDTAVYYCAKDGGETLVDSRGQGTLVTVSSLEAAAKEDLKNVFPPEVAVFEPSEAEISHTQKATLVCLATGFYPDHVELSWWVNGKEVHSGVCTDPQPLKEQPALNDSRYCLSSRLRVSATFWQNPRNHFRCQVQFYGLSENDEWTQDRAKPVTQIVSAEAWGRADCGFTSESYQQGVLSATILYEILLGKATLYAVLVSALVLMAMVKRKDSRGRAKRSGSGATNFSLLKQAGDVEENPGPTSMDWIWRILFLVGAATGAHSFEEVQLLESGGGLVQPGGSLRLSCAASGFTFSSYAMSWVRQAPGKGLEWVSSISGSGDYIYYADSVKGRFTISRDISKNTLYLQMNSLRAEDTAVYYCAKEGTGANSSLADYRGQGTLVTVSSTRIQNPDPAVYQLRDSKSSDKSVCLFTDFDSQTNVSQSKDSDVYITDKCVLDMRSMDFKSNSAVAWSNKSDFACANAFNNSIIPEDTFFPSPESSCDVKLVEKSFETDTNLNFQNLSVIGFRILLLKVAGFNLLMTLRLWSSRAKRSGSGVKQTLNFDLLKLAGDVESNPGPSRGHMTEYKPTVRLATRDDVPRAVRTLAAAFADYPATRHTVDPDRHIERVTELQELFLTRVGLDIGKVWVADDGAAVAVWTTPESVEAGAVFAEIGPRMAELSGSRLAAQQQMEGLLAPHRPKEPAWFLATVGVSPDHQGKGLGSAVVLPGVEAAERAGVPAFLETSAPRNLPFYERLGFTVTADVEVPEGPRTWCMTRKPGA | L363 (+/-) (refer to approximately 5%, 10%, 20%, 30%, 40% and 50% GFP positive cells)
4 | 22064 (protein) MALPVTALLLPLALLLHAARPQVQLVESGGGLVQPGGSLRLSCAASGFTFTNHAMSWVRQAPGKGLELVSSISGNGRTTYYADSVKGRFTISRDISKNTLDLQMNSLRAEDTAVYYCAKDGGETLVDSRGQGTLVTVSSLEGGGGSGGGGSGGGGSVEDLKNVFPPEVAVFEPSKAEIAHTQKATLVCLATGFYPDHVELSWWVNGKEVHSGVCTDPQPLKEQPALNDSRYCLSSRLRVSATFWQNPRNHFRCQVQFYGLSENDEWTQDRAKPVTQIVSAEAWGRADCGITSASYHQGVLSATILYEILLGKATLYAVLVSALVLMAMVKRKDSRGRAKRSGSGATNFSLLKQAGDVEENPGPTSMDWIWRILFLVGAATGAHSFEEVQLLESGGGLVQPGGSLRLSCAASGFTFSSYAMSWVRQAPGKGLEWVSSISGSGDYIYYADSVKGRFTISRDISKNTLYLQMNSLRAEDTAVYYCAKEGTGANSSLADYRGQGTLVTVSSTRIQNPDPAVYQLRDSKSSDKSVCLFTDFDSQTNVSQSKDSDVYITDKCVLDMRSMDFKSNSAVAWSNKSDFACANAFNNSIIPEDTFFPSPESSCDVKLVEKSFETDTNLNFQNLSVIGFRILLLKVAGFNLLMTLRLWSSRAKRSGSGVKQTLNFDLLKLAGDVESNPGPSRGHMTEYKPTVRLATRDDVPRAVRTLAAAFADYPATRHTVDPDRHIERVTELQELFLTRVGLDIGKVWVADDGAAVAVWTTPESVEAGAVFAEIGPRMAELSGSRLAAQQQMEGLLAPHRPKEPAWFLATVGVSPDHQGKGLGSAVVLPGVEAAERAGVPAFLETSAPRNLPFYERLGFTVTADVEVPEGPRTWCMTRKPGA | L363 (+/-) (refer to approximately 5%, 10%, 20%, 30%, 40% and 50% GFP positive cells)
5 | 22062 (protein) MALPVTALLLPLALLLHAARPQVQLVESGGGLVQPGGSLRLSCAASGFTFTNHAMSWVRQAPGKGLELVSSISGNGRTTYYADSVKGRFTISRDISKNTLDLQMNSLRAEDTAVYYCAKDGGETLVDSRGQGTLVTVSSLEVAALEREDLKNVFPPEVAVFEPSEAEISHTQKATLVCLATGFYPDHVELSWWVNGKEVHSGVCTDPQPLKEQPALNDSRYCLSSRLRVSATFWQNPRNHFRCQVQFYGLSENDEWTQDRAKPVTQIVSAEAWGRADCGFTSESYQQGVLSATILYEILLGKATLYAVLVSALVLMAMVKRKDSRGRAKRSGSGATNFSLLKQAGDVEENPGPTSMDWIWRILFLVGAATGAHSFEEVQLLESGGGLVQPGGSLRLSCAASGFTFSSYAMSWVRQAPGKGLEWVSSISGSGDYIYYADSVKGRFTISRDISKNTLYLQMNSLRAEDTAVYYCAKEGTGANSSLADYRGQGTLVTVSSTRIQNPDPAVYQLRDSKSSDKSVCLFTDFDSQTNVSQSKDSDVYITDKCVLDMRSMDFKSNSAVAWSNKSDFACANAFNNSIIPEDTFFPSPESSCDVKLVEKSFETDTNLNFQNLSVIGFRILLLKVAGFNLLMTLRLWSSRAKRSGSGVKQTLNFDLLKLAGDVESNPGPSRGHMTEYKPTVRLATRDDVPRAVRTLAAAFADYPATRHTVDPDRHIERVTELQELFLTRVGLDIGKVWVADDGAAVAVWTTPESVEAGAVFAEIGPRMAELSGSRLAAQQQMEGLLAPHRPKEPAWFLATVGVSPDHQGKGLGSAVVLPGVEAAERAGVPAFLETSAPRNLPFYERLGFTVTADVEVPEGPRTWCMTRKPGA | L363 (+/-) (refer to approximately 5%, 10%, 20%, 30%, 40% and 50% GFP positive cells)
6 | 22075 (protein) MALPVTALLLPLALLLHAARPQVQLVESGGGLVQPGGSLRLSCAASGFTFTNHAMSWVRQAPGKGLELVSSISGNGRTTYYADSVKGRFTISRDISKNTLDLQMNSLRAEDTAVYYCAKDGGETLVDSRGQGTLVTVSSLEGQPKANPTVTLFPPSSEELQANKATLVCLISDFYPGAVTVAWKADGSPVKAGVETTKPSKQSNNKYAASSYLSLTPEQWKSHRSYSCQVTHEGSTVEKTVAPTECSGRADCGFTSESYQQGVLSATILYEILLGKATLYAVLVSALVLMAMVKRKDSRGRAKRSGSGATNFSLLKQAGDVEENPGPTSMDWIWRILFLVGAATGAHSFEEVQLLESGGGLVQPGGSLRLSCAASGFTFSSYAMSWVRQAPGKGLEWVSSISGSGDYIYYADSVKGRFTISRDISKNTLYLQMNSLRAEDTAVYYCAKEGTGANSSLADYRGQGTLVTVSSTRIQNPDPAVYQLRDSKSSDKSVCLFTDFDSQTNVSQSKDSDVYITDKCVLDMRSMDFKSNSAVAWSNKSDFACANAFNNSIIPEDTFFPSPESSCDVKLVEKSFETDTNLNFQNLSVIGFRILLLKVAGFNLLMTLRLWSSRAKRSGSGVKQTLNFDLLKLAGDVESNPGPSRGHMTEYKPTVRLATRDDVPRAVRTLAAAFADYPATRHTVDPDRHIERVTELQELFLTRVGLDIGKVWVADDGAAVAVWTTPESVEAGAVFAEIGPRMAELSGSRLAAQQQMEGLLAPHRPKEPAWFLATVGVSPDHQGKGLGSAVVLPGVEAAERAGVPAFLETSAPRNLPFYERLGFTVTADVEVPEGPRTWCMTRKPGA | +/- (refer to approximately 5%, 10%, 20%, 30%, 40% and 50% GFP positive cells)
